Data from article PMC7476758, “Underground isoleucine biosynthesis pathways in E. coli” (eLife, 2020).

Key:
N[C@@H](CO)C(=O)O = test: Michaelis-Menten kinetics of purified mutant enzyme, DTNB assay (KM); assay type: biochemical, Escherichia coli; details: mutation far from the active site
[1] = system: CC(=O)SCCNC(=O)CCNC(=O)[C@H](O)C(C)(C)COP(=O)(O)OP(=O)(O)OC[C@H]1O[C@@H](n2cnc3c(N)ncnc32)[C@H](O)[C@@H]1OP(=O)(O)O; test: Michaelis-Menten kinetics of purified mutant enzyme, DTNB assay of released CoA (KM); assay type: biochemical, Escherichia coli; details: mutation far from the active site

serine acetyltransferase (CysE) (Escherichia coli K-12; A33T)
Km (N[C@@H](CO)C(=O)O): 500 ± 200 µM | Km [1]: 5000 ± 2000 µM
